Results on 2 molecules are retold here after publication PMC5739537, “Computationally-driven identification of antibody epitopes” (eLife, 2017).

The target in this assay is T1, B7H6 (wild type) (human, UniProt Q68D85).
T1 construct: B7H6, human tumor antigen; complete extracellular and transmembrane domains; The results call it the full-length transmembrane protein, the methods complete extracellular and transmembrane domains; also called WT B7H6; WT Ag; source: HEK-293F, transfected (pPPI4 surface expression vector, polyethyleneimine), on the cell surface
The assay is described as follows: flow cytometry on cells; HEK-293F cells expressing WT B7H6 or designed variants, 2.5x10^5 cells/well; 100 nM TZ47, PB11 scFv-Fc or NKp30-Ig for 1 hr in PBS + 0.1% BSA; Anti-Mouse-AlexaFluor488 or Anti-Hu-AlexaFluor647 secondary Abs; integrated MFI normalised to NKp30-Ig binding and to WT B7H6; triplicate wells. The conditions noted are these: one partner purified.

T1 sequence (Q68D85 25-262): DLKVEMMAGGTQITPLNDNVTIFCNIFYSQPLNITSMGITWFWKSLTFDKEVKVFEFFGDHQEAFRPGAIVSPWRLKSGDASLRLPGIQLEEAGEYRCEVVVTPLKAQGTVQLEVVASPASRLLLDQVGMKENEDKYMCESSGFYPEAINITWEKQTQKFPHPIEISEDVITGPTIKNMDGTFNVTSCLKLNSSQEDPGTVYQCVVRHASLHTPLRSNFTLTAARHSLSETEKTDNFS

B1: PB11 scFv-Fc (scFv, V domains shown)
VH: QVQLVQSGAEVKKPGASVKISCKASGYTLGTYTLHWMRQAPGQRIEWMGWINPGNGYTKYSQRFQGRVTINRDTSATTTYMELSSLRSEDTAVYFCATDRAPVRRAFDIWGQGTMVTVSS
VL: QSVLTQPASVSGSPGQSVTISCTGTSSDIGSYKFVSWYQHHPGKAPKLMIYDVTQRPSGVPYRFSGSKSGNTASLTISGLQAEDEADYYCCSYAGDYTYALFGGGTQLTVL
notes: Used as scFv-Fc in the staining
For B1, the binding result is “binds”.

B2: TZ47 (antibody, V domains shown)
VH: QVQLQQSGAELMKPGASVKLSCKATGYTFTGYWIEWIKQRPGHGLEWIGEILPGTGSTNYNEKFKGKATFTADTSSNTAYMQLSSLTTEDSAIYYCAIPGPMDYWGQGTSVTVSS
VL: DIKMTQSPSSMYASLGERVTITCKASQDINSYLSWFQQKPGKSPKTLIYRANRLVDGVPSRFSGSGSGQDYSLTISSLEYEDMGIYYCLQYDEFPYTFGGGTKLEIK
notes: Murine antibody; detected with an anti-mouse AlexaFluor488 secondary antibody
In the case of B2, the binding result is on record as “binds”.
